Measured values published in IntAct's records for PubMed 24583011.

What was measured:
[1] = target: T1, sv2c_rat Sv2c (UniProt Q9Z2I6)
T1 sequence: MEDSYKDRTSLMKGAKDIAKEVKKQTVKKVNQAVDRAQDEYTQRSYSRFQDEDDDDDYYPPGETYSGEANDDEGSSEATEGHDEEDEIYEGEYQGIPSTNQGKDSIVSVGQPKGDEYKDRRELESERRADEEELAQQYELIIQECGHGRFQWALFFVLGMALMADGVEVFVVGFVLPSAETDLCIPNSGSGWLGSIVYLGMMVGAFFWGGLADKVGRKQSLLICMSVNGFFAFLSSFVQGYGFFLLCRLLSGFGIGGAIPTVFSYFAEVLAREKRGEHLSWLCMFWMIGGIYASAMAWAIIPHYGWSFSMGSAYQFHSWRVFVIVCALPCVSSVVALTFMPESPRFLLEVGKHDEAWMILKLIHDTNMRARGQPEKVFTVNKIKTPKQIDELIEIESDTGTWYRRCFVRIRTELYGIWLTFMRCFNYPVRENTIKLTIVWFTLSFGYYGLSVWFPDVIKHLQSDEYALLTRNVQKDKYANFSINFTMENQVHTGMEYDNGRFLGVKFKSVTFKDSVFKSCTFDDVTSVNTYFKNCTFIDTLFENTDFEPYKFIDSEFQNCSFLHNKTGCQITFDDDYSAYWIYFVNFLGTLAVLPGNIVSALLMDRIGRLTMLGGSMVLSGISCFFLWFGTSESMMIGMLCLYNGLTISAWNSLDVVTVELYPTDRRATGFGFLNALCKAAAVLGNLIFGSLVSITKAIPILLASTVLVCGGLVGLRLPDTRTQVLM

[2] = target: T1, sv2c_rat Sv2c; remark: listed apart in the source
[3] = target: T1, sv2c_rat Sv2c; remark: listed apart in the source
[4] = target: T1, sv2c_rat Sv2c; remark: listed apart in the source
[5] = target: T1, sv2c_rat Sv2c; remark: listed apart in the source
[6] = target: T1, sv2c_rat Sv2c; remark: listed apart in the source
[7] = target: T1, sv2c_rat Sv2c; remark: listed apart in the source
[8] = target: T1, sv2c_rat Sv2c; remark: listed apart in the source
[9] = target: T1, sv2c_rat Sv2c; remark: listed apart in the source
[10] = target: T1, sv2c_rat Sv2c; remark: listed apart in the source

For “Botulinum neurotoxin type A (Clostridium botulinum) (from UniProt P0DPI0) D1108R”, the “effect of a mutation on the interaction” value [1] was “decreasing interaction”.

With “Botulinum neurotoxin type A (Clostridium botulinum) (from UniProt P0DPI0) G1292R” the “effect of a mutation on the interaction” value [2] was “decreasing interaction”.

With “Botulinum neurotoxin type A (Clostridium botulinum) (from UniProt P0DPI0) H1064G” the “effect of a mutation on the interaction” value [3] was “decreasing interaction”.

In the case of “Botulinum neurotoxin type A (Clostridium botulinum) (from UniProt P0DPI0) K1163E”, the “effect of a mutation on the interaction” value [4] is reported as “decreasing interaction”.

“Botulinum neurotoxin type A (Clostridium botulinum) (from UniProt P0DPI0) N905Y” was tested, and the “effect of a mutation on the interaction” value [5] was “decreasing interaction”.

For “Botulinum neurotoxin type A (Clostridium botulinum) (from UniProt P0DPI0) N1188A”, the “effect of a mutation on the interaction” value [6] was “decreasing interaction”.

For “Botulinum neurotoxin type A (Clostridium botulinum) (from UniProt P0DPI0) R1131E”, the “effect of a mutation on the interaction” value [7] was “decreasing interaction”.

In the case of “Botulinum neurotoxin type A (Clostridium botulinum) (from UniProt P0DPI0) R1156M”, the “effect of a mutation on the interaction” value [8] is reported as “decreasing interaction”.

With “Botulinum neurotoxin type A (Clostridium botulinum) (from UniProt P0DPI0) T1063P” the “effect of a mutation on the interaction” value [9] was “decreasing interaction”.

For “Botulinum neurotoxin type A (Clostridium botulinum) (from UniProt P0DPI0) V1287E”, the “effect of a mutation on the interaction” value [10] was “decreasing interaction”.
